The supplement of paper PMC10567573

B1: FCHO1 (parent)
chain: HLELTRKLQDLIKDVLRYGEEQLK

Variants of: B1
Assay: protein stability index of a GFP-peptide fusion (GPS, HEK-293T) (PSI 1-6); higher = more stable
Conditions: c terminus: a fixed tail appended
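Note: lentivirally expressed fusions sorted by FACS into six bins by GFP to DsRed ratio, PSI derived from sequencing read proportions per bin multiplied by bin number.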

Protein stability index, by site and new letter:
Y18: Q 3.96 | P 2.42 | M 2.65 | E 1.77 | N 1.84 | A 2.74 | K 3.41 | D 2.63 | H 2.12 | R 2.27 | G 1.83 | C 1.61 | V 3.06 | L 2.53 | S 1.82 | T 1.88 | F 2.25
R6: F 1.9 | W 2.34 | P 1.79 | K 2.69 | V 1.69 | G 2.11 | Q 1.86 | H 3.21 | C 2.25 | Y 1.9 | A 1.45 | L 1.29 | S 2.4 | M 1.46 | E 1.85 | D 1.84 | I 1.95 | T 1.92 | N 1.61
R17: L 2.88 | M 1.98 | V 2.61 | T 1.54 | P 2.95 | Q 2.26 | I 1.54 | N 2.64 | C 1.83 | H 3.28 | G 1.58 | Y 2.08 | E 1.76 | F 3.06 | D 1.73 | A 1.97 | S 1.46
Q22: D 2.43 | F 2.07 | C 1.59 | E 2.37 | A 1.68 | G 2.62
L2: V 3.29 | N 2.76 | T 2.88 | K 2.13 | W 1.41 | H 1.64 | M 5.22 | I 1.87 | Q 2.94 | Y 2.04 | R 2.11
K13: R 2.3 | E 2.37 | T 1.67 | M 2.22 | Y 1.33 | P 2.63 | W 2.16 | S 2 | V 2.29 | I 4.84 | H 1.8 | A 2.14 | D 2.06 | G 1.78 | L 4.09 | C 2.28 | F 1.59 | N 1.9 | Q 1.59
K7: L 3.41 | W 1.87 | E 2.28 | Q 2.28 | G 2.68 | T 2.96 | P 1.51 | R 2.78 | I 2.06 | F 2.12 | Y 1.78 | H 1.99 | C 1.55 | D 2.27 | M 3.46 | V 1.74 | A 2.33 | N 2.03 | S 2.75
I12: F 2.57 | M 2.25 | K 3.17 | W 1.89 | N 4.18 | L 1.77 | P 3.65 | A 2.27 | T 2.31 | G 2.88 | C 1.73 | D 4.11 | H 3.05 | E 3.82 | S 2.51 | R 3.39 | Y 2.34 | Q 3.4
E3: I 2.88 | D 2.84 | P 2.72 | W 2.83 | N 3.5 | L 2.7 | T 3.33 | H 3.08 | R 2.74 | C 2.31 | M 3.36 | A 2.96 | Y 2.52 | K 2.17 | S 3.71 | V 2.56 | F 2.54 | Q 3.73
L11: Y 1.09 | A 2.5 | P 4.34 | I 3.17 | Q 2.47 | K 2.38 | C 1.67 | R 1.2 | T 1.63 | M 3.68 | N 2.56 | H 2.51 | S 2.67 | E 4.22 | F 3.54 | G 2.38 | D 4.29
D10: R 2.58 | W 2.82 | P 1.99 | V 4.56 | I 3.93 | E 3.03 | C 3.93 | G 3.66 | N 2.62 | K 2.72 | L 1.44 | Y 4.45 | A 3.54
E20: A 2.69 | G 2.66 | M 2.81 | V 3.74 | P 2.51 | D 3.65 | S 3.54 | H 2.58 | K 1.7 | Y 2.65 | T 1.74 | C 2.57 | W 3.32 | I 3.44
E21: M 3.24 | T 2.8 | I 3.67 | H 2.76 | R 2.43 | Y 3.04 | D 1.81 | N 3.29 | W 1.81
D14: K 4.59 | G 1.68 | A 2.45 | S 3.79 | Y 2.66 | V 3.29 | F 1.77 | C 3.08 | L 1.99 | P 2.97 | R 3.44 | Q 4.72 | H 3.31 | M 1.3 | E 2.9 | N 2.76 | I 2.7
G19: S 1.52 | Q 1.59 | F 2.83 | D 2.09 | A 2.5 | L 2.03 | N 2.18 | H 2.29 | K 1.59 | I 2.01 | T 3.25 | R 2.53 | P 1.78 | E 1.88 | Y 1.75 | C 1.4 | W 3.49 | M 1.97 | V 2.02
L8: W 1.36 | K 2.74 | S 3.28 | P 2.71 | D 4.04 | E 3.62 | F 2.29 | M 1.45 | I 4.57 | V 1.97 | H 2.71 | A 1.94 | N 3.85 | C 3.07 | Q 3.3 | G 2.46 | T 2.39 | Y 1.64 | R 3.39
L4: T 1.55 | M 2.21 | V 3.17 | P 1.58 | K 1.43 | F 3.76 | N 1.75 | C 4.01 | D 2.01 | Y 2.41 | E 1.46 | H 3.01 | W 3.23 | S 2.76 | Q 2.58 | I 2.12 | G 2.02
V15: Q 2.49 | N 2.98 | F 2.12 | M 3.23 | D 4.22 | I 2.96 | W 3.69 | H 1.83 | E 3.18 | S 1.88 | G 2.15 | P 2.27 | K 1.87 | A 2.98 | R 2.74
T5: M 3.28 | N 2.14 | A 1.89 | Q 3.54 | H 3.29 | C 2.55 | L 3.42 | K 5.01 | W 2.05 | I 2.38 | P 1.94 | G 2.48 | Y 3.13 | V 2.63 | F 2.34 | E 1.88 | D 2.53 | S 3.79
Q9: I 1.22 | K 3.73 | Y 3.31 | W 2.68 | D 1.24 | A 2.81 | V 2.56 | L 2.26 | P 2.81 | H 1.65 | G 1.31 | F 2.25 | M 3.55
L16: E 3.18 | A 1.04 | G 2.61 | D 3.32 | I 2.39 | T 2.25 | H 2.73 | V 4.13 | W 3.05 | K 1.44 | Q 2.54 | Y 1.93 | P 2.9 | N 2.82 | F 2.77 | M 2.69 | R 1.69 | S 2.09 | C 2.91
